Patent US20200234789A1, “DESIGNED PROTEINS FOR LIGAND BINDING” (THE REGENTS OF THE UNIVERSITY OF CALIFORNIA, priority 2017, published 2020)

How the values were obtained:
[1] = Size exclusion chromatography (analytical gel filtration), oligomeric state; format: physicochemical; details: 100 μM; 50 mM NaPi, 150 mM NaCl, pH 7.0; superdex 75 5/150
Text: (§1) FIG. 7A-7B. […] FIG. 7A: Analytical ultracentrifugation. Solutions of apo- and holo-PS1 were centrifuged at speeds ranging from 25,000 r.p.m. to 45,000 r.p.m. and monitored by absorbance at 280 nm. Parameters were globally fit to the data. Single-species fitting agrees well with the data over the entire range and yields the molecular weight of apo-PS1 […] and holo-PS1 12.24±0.91 kD, which agrees well with the 12.86 kD weight of PS1. […] Partial specific volumes were estimated from SEDNTERP^15 for amino acid side chains. FIG. 7B: Analytical gel filtration analysis of apo- and holo-PS1. Detection wavelengths are labeled as the same color as their respective curves. […] The small peak near 1.05 ml elution volume in holo-PS1 is unbound (excess), aggregated porphyrin eluting in the void volume of the superdex 75 5/150 column. Samples were run at concentrations of 100 μM and 37 μM for apo and holo, respectively, in 50 mM NaPi, 150 mM NaCl, pH 7.0 buffer.
Gel filtration profiles were obtained using a Superdex 75 5/150 column on an FPLC system (GE Healthcare AKTA). […] The approximate molecular weight (MWapp) was calculated from a standard curve obtained with the GE LMW standard protein kit. […]

[2] = Analytical ultracentrifugation (equilibrium sedimentation), oligomeric state; format: physicochemical; details: analytical ultracentrifugation and gel filtration
Text: as §1
The oligomeric state of apo- and holo-PS1 were determined by analytical equilibrium sedimentation performed at 25° C. using a Beckman XL-I analytical ultracentrifuge. Ultracentrifugation was conducted at speeds of 25K, 30K, 35K, 40K and 45K r.p.m., and the radial gradient profiles were obtained by absorbance at 280 nm. […]

[3] = Circular dichroism: temperature and GnHCl induced unfolding; format: physicochemical; details: at 95° C.; CD at 222 nm; 50 mM NaPi, 100 mM NaCl, pH 7.5
Procedure: (§2) FIGS. 3A-3D. Biophysical characterization of apo- and holo-PS1. FIG. 3A: Electronic absorption and emission spectra of (CF3)4PZn/PS1 holo-protein and (CF3)4PZn in toluene solvent. […] FIG. 3B: Determination of KD by apo-PS1 titration into a buffer solution (100 mM NaCl, 50 mM NaPi, pH 7.5) of (CF3)4PZn with 1% w/v octyl-b-D-glucopyranoside. […] FIG. 3C: Circular dichroism (CD) spectra of apo- and holo-PS1 in 50 mM NaPi, 100 mM NaCl, pH 7.5 as a function of temperature. The transitions appear reversible based on the fact that the spectra are identical after cooling to room temperature. Units are in molar residue ellipticity. […] FIG. 3D: Pump-probe transient absorption spectra of (CF3)4PZn bound in the interior of holo-PS1 at 21° C. and 100° C. […] Inset exemplifies identical transient dynamics (primarily intersystem crossing from S1 to T1) at ΔAbs.=482 nm (scaled). Experimental conditions: solvent=50 mM NaPi, 100 mM NaCl, pH 7.5; excitation wavelength=600±5 nm; magic-angle polarization between pump and probe pulses; pump-probe cross-correlation of ˜250 fs.
FIG. 8. Temperature and GnHCl induced unfolding of apo-PS1. CD spectra at 222 nm of apo-PS1 as a function of temperature and denaturant (Guanidine HCl, GnHCl) concentration in 50 mM NaPi, 100 mM NaCl, pH 7.5 buffer. The midpoint for GnHCl-induced unfolding at 95° C. was approximately 4.5 M. […]

[4] = Porphyrin binding to apo-protein, electronic absorption spectra ((CF3)4PZn loading)
Procedure: as §2
FIG. 10. Absorption spectra of (CF3)4PZn/PS1 and (CF3)4PZn/PS2 complexes. […] Experimental conditions: buffer=100 mM NaCl, 50 mM NaPi, pH 7.5.
A 2-fold excess of the cofactor (CF3)4PZn was added from a 4 mM DMSO stock solution to a 50 mM NaPi, 100 mM NaCl, pH 7.5 buffer with apo-protein (Note that final DMSO concentrations were kept <1%.). Buffer solution of apo-PS1 protein was heated for 5 minutes at 50° C., (CF3)4PZn was then added from the DMSO stock solution, the resultant mixture was vortexed for 5 seconds, and placed back in the heat block at 50° C. for 15 minutes, with vortexing every 3 minutes. The protein/cofactor solution was then spun at 14000×g in a Amicon Ultra-0.5 mL centrifuge filter for 10 min, three times, replacing the buffer to 0.5 mL after each 10 min spin. Finally, the protein solution was spun for 4 min at 12000×g in an Amicon ultrafree-MC GV filter (UFC30GV0S). The holo-PS1 sample was then used for spectroscopic experiments immediately afterward, and diluted to an appropriate concentration if necessary. Binding of (CF3)4PFe was carried out in the same fashion, with the exception that the porphyrin was first dissolved in a stock of DMSO/CHCl3.
Electronic absorption spectra were collected using a Shimadzu UV-1700 UV-Vis spectrophotometer or Cary 5000 spectrophotometer. Steady-state emission spectra were obtained on FLS920P spectrophotometer (Edinburgh Instruments Ltd. Livingston, UK) in 1 cm quartz optical cells. The steady-state emission spectra were corrected using the correction factor generated by the manufacturer.

- porphyrin loading ([4]; (CF3)4PZn, based on absorbance at 280 nm and 423 nm, 100 mM NaCl, 50 mM NaPi, pH 7.5): 100%
- time of complex formation ([4]; adding (CF3)4PZn from organic solution to aqueous PS1): within seconds
B1: PS1: de novo designed porphyrin-binding four-helix bundle protein; designed sequence SEQ ID NO:1, expressed His-tag-cleaved sequence SEQ ID NO:2 (protein)
chain: SEFEKLRQTGDELVQAFQRLREIFDKGDDDSLEQVLEEIEELIQKHRQLFDNRQEAADTEAAKQGDQWVQLFQRFREAIDKGDKDSLEQLLEELEQALQKIRELAEKKN
- degree of dimerization relative to the monomer peak [1]: < 5%
- oligomeric state in solution [2]: monomeric
- midpoint for GnHCl-induced unfolding [3]: approximately 4.5 M
- stability of the (CF3)4PZn complex over time ([4]; complex with (CF3)4PZn): stable for over a year
